The record followed here is paper PMC8248388.

Assay [1] concerns the target FcγRIIIa F176 (UniProt P08637). The assay is described as follows: SPR; Biacore T200, 25°C, HBS-EP+; His-tagged FcγR captured by anti-His antibody on a CM5 chip, rituximab injected; single-cycle kinetics, five concentrations, 600 s dissociation; 1:1 binding model, KD from kd/ka.
Assay [2] deals with FcγRI (UniProt P12314). The description is as above.
The target in assay [3] is FcγRIIIa V176 (UniProt P08637). The assay is described as follows: SPR; Biacore T200, 25°C, HBS-EP+; anti-His antibody amine-coupled on a CM5 chip captures the His-tagged FcγR; rituximab injected at five increasing concentrations (150 s, 30 µl/min), single-cycle kinetics, dissociation 600 s; 1:1 binding model, KD from kd/ka.
Assay [4] concerns the target FcγRIIIa F176 (UniProt P08637). The assay is described as above.
The target of assay [5] is FcγRIIIa V176 (UniProt P08637).
Assay [6] addresses FcγRIIb (UniProt P31994). Briefly: SPR; Biacore T200, 25°C, HBS-EP+; His-tagged FcγRIIb captured by anti-His antibody on a CM5 chip (404 RU), rituximab injected at 375-6000 nM; steady-state model, report points 15 s after injection start.
UniProt P31994, sequence (P31994 43-217): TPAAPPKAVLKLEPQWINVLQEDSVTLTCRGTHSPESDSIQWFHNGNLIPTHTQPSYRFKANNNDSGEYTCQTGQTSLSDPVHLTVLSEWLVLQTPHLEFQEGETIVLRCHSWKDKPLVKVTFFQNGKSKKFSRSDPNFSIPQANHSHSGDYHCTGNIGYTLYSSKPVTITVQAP
In assay [7] the target is FcγRIIb (UniProt P31994). The assay is described as follows: SPR; Biacore T200, 25°C, HBS-EP+; anti-His antibody on a CM5 chip captures His-tagged FcγRIIb (404 RU); rituximab 375-6000 nM injected; steady-state model, report points 15 s after injection start.
For assay [8], the target named is FcγRI (UniProt P12314). The assay is described as follows: SPR; Biacore T200, 25°C, HBS-EP+; anti-His antibody amine-coupled on a CM5 chip captures the His-tagged FcγR; rituximab injected at five increasing concentrations (150 s, 30 µl/min), single-cycle kinetics, dissociation 600 s; 1:1 binding model, KD from kd/ka.

pKd: −log10 of the molar value.

UniProt P12314, sequence (P12314 16-292): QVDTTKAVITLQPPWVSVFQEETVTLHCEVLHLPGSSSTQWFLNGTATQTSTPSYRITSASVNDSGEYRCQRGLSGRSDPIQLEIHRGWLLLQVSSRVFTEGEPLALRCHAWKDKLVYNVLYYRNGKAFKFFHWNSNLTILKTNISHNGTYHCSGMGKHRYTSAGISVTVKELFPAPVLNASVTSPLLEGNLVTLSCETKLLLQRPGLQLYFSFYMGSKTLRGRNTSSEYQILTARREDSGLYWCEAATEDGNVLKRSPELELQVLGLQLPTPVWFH

As to “modified rituximab (46% afucosylation and 48% thiofucosylation) (antibody)”, the pKd in assay [1] was 7.14; in assay [2] it was 7.95; in assay [3], 7.89; in assay [4], 7.15; in assay [6] it was 6.05; in assay [7], 6.04. The EC50 of the ADCC Reporter Bioassay (Promega G7015); Day 7 samples from 200, 400 and 800 µM ThioFuc (38, 34, 37 ng/mL); FcγRIIIa variant on the effector cells not stated in assay [5] stood at 0.038 µg/mL.

In the case of “rituximab (8.5% afucosylation) (antibody)”, the pKd in assay [2] is 7.85; in assay [8], 7.92. In addition, the EC50 of the ADCC Reporter Bioassay (Promega G7015): Raji target cells, engineered Jurkat effector cells, luciferase; FcγRIIIa variant on the effector cells not stated in assay [5] worked out at 0.087 µg/mL.
